Experimental data from patent US20220281976A1 (Alector, published 2022).

T1: mouse CD33 Fc fusion protein (mouse, UniProt Q63994 18-240, limits assumed)
T1 construct: also called mCD33-Fc
T1 sequence: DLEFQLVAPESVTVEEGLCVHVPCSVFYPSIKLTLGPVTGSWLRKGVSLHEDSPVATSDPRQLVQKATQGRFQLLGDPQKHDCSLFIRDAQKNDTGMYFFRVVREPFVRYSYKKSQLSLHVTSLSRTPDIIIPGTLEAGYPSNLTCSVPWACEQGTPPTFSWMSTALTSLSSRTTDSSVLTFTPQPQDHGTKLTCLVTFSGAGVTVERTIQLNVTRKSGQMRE


How the values were obtained:
[1] = biological target: T1, mouse CD33 Fc fusion protein; assay: ForteBio BLI or MSD-SET
human CD33 [2] = biological target: T2, human CD33 (human, UniProt P20138 18-364); assay: flow cytometry, human primary T cells;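 also: binding of anti-CD33 antibodies at 10 ug/ml to human primary T cells, 1 h on ice, detected with PE-labelled secondary antibody, read as flow cytometry MFI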
T2 construct: CD33 on human primary dendritic cells, macrophages, monocytes and T cells and on CHO cells expressing recombinant human CD33; also called Siglec-3; hCD33
Procedure: (§1) Initial characterization of CD33 antibodies involved determining their ability to bind CD33 expressed on a CHO cell line, on human primary monocytes, human primary macrophages, human primary dendritic cells, and on human primary T cells. Cells were harvested, plated at 10⁶/ml in a 96 well plate, and incubated in 100 ul PBS containing 2% FBS, 2 mM EDTA and 10 ug/ml Mab and Fc blocking reagent for 1 hour in ice. Cells were washed twice and incubated in 100 ul PBS containing 2% FBS, 2 mM EDTA and 5 ug/ml PE-conjugated secondary antibody for 30 minutes on ice. Cells were washed twice in cold PBS and analyze by flow cytometry on a BD FACS Canto. Data analysis and calculation of MFI values was performed with FlowJo (TreeStar) software version 10.0.7.

human CD33 [3] = biological target: T2, human CD33; assay: flow cytometry, human primary dendritic cells;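 also: binding of anti-CD33 antibodies (10 ug/ml, 1 h on ice) to human primary dendritic cells, detected with a PE-labelled secondary antibody, reported as flow cytometry MFI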
Procedure: as §1

[4] = biological target: T3, human CD33 Fc fusion protein (human, UniProt P20138 18-259); assay: ForteBio BLI or MSD-SET, IgG, avid;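 also: Anti-CD33 IgG affinity by BLI, IgG captured on AHQ sensors with antigen in solution and a one-to-one kinetic fit, or by MSD solution equilibrium titration with quadratic fit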
T3 construct: also called hCD33-Fc; human CD33/Fc chimera (R&D Systems)
Procedure: The binding affinity of each anti-CD33 antibody was determined by measuring their KD by ForteBio or MSD-SET. […] Briefly, ForteBio affinity measurements were performed by loading IgGs on-line onto AHQ sensors. Sensors were equilibrated off-line in assay buffer for 30 min and then monitored on-line for 60 seconds for baseline establishment. Sensors with loaded IgGs were exposed to 100 nM antigen for 5 minutes, then transferred to assay buffer for 5 min for off-rate measurement. Kinetics were analyzed using the 1:1 binding model.
Solution equilibrium titrations (SET) were performed in PBS+0.1% IgG-Free BSA (PBSF) with antigen held constant at 50 pM and incubated with 3-to 5-fold serial dilutions of antibody starting at 10 nM. Antibodies (20 nM in PBS) were coated onto standard bind MSD-ECL plates overnight at 4° C. or at room temperature for 30 min. Plates were then blocked for 30 min with shaking at 700 rpm, followed by three washes with wash buffer (PBSF+0.05% Tween 20). SET samples were applied and incubated on the plates for 150s with shaking at 700 rpm followed by one wash. Antigen captured on a plate was detected with 250 ng/mL sulfotag-labeled streptavidin in PBSF by incubation on the plate for 3 min. The plates were washed three times with wash buffer and then read on the MSD Sector Imager 2400 instrument using 1× Read Buffer T with surfactant. The percent free antigen was plotted as a function of titrated antibody in Prism and fit to a quadratic equation to extract the KD. To improve throughput, liquid handling robots were used throughout MSD-SET experiments, including SET sample preparation.

human CD33 [5] = biological target: T2, human CD33; assay: flow cytometry, human primary monocytes; set-up: reference not given here;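 also: binding of anti-CD33 antibodies at 10 ug/ml to human primary monocytes, 1 h on ice, detected by PE-labelled secondary antibody, flow cytometry readout as mean fluorescence intensity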
human CD33 [6] = biological target: T2, human CD33; assay: flow cytometry, human primary macrophages;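 also: binding of CD33 antibodies at 10 µg/ml to human primary macrophages, 1 h on ice, detected with PE-labelled secondary antibody by flow cytometry, reported as MFI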
[7] = biological target: T4, human monomeric His tagged CD33 protein (human, UniProt P20138 18-259); assay: ForteBio BLI or MSD-SET, IgG, monomeric antigen;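 also: BLI: antibodies captured on AHQ sensors, 100 nM antigen association 5 min, dissociation 5 min, 1:1 fit. MSD-SET: antigen fixed at 50 pM, antibody titrated, quadratic fit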
T4 construct: also called hCD33-His

human CD33 [8] = biological target: T2, human CD33; assay: cell-based or functional assay
[9] = biological target: T3, human CD33 Fc fusion protein; assay: RBC adhesion to plate-bound CD33-Fc; antibody 1.0 ug/ml;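 also: red blood cells adhering to plate-coated CD33-Fc after 1 h antibody pretreatment, then 1 h at room temperature, bound cells read as peroxidase activity after lysis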
Procedure: (§2) Briefly, 5 ug/ml CD33-Fc was coated overnight at RT in 96 well Immunolon plates, then washed with PBS, blocked for one hour with binding buffer (PBS containing %0.25 BSA 1 mM CaCl₂). CD33 antibodies (0.5 ug/ml or 1.0 ug/ml) or Fabs (25 ug/ml) were bound for one hour at RT with gentle rocking. After removal of unbound antibody, red blood cells were added to each well at a concentration of 3.0×10⁶ cells per ml and incubated at RT for one hour. Unbound RBCs were then carefully washed off 3× with PBS, and water was added to each well for hypotonic lysis of bound RBCs. The plate was transferred to −80° C. for 10 minutes, followed by 37° C. for 15 minutes. Bound RBCs were detected by peroxidase activity, followed by 2N sulfuric acid to stop the reaction.

[10] = biological target: T3, human CD33 Fc fusion protein; assay: RBC adhesion to plate-bound CD33-Fc; antibody 0.5 ug/ml;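 also: Plate-coated CD33-Fc preincubated 1 h with antibody, then red blood cells added for 1 h at room temperature, adherent cells lysed and quantified via peroxidase activity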
Procedure: as §2

T2 sequence (P20138 18-364): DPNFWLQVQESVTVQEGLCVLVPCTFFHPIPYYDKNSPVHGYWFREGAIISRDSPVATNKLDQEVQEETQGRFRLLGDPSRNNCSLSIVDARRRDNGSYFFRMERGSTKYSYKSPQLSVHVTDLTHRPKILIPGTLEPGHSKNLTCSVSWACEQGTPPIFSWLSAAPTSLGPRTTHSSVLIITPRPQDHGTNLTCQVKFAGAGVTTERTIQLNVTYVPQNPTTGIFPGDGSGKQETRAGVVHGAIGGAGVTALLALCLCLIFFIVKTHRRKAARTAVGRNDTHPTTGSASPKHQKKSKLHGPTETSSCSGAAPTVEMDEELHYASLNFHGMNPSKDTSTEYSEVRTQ
T4 sequence (P20138 18-259 limits assumed): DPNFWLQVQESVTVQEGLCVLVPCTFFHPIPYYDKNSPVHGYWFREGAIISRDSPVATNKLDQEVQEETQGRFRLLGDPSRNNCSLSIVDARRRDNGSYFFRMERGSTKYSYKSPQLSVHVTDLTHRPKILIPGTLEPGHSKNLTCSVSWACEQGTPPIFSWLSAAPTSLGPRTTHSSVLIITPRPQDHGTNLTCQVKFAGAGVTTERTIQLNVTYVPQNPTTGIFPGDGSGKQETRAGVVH
T3 sequence (P20138 18-259 limits assumed): as above

Binder	binding result [1]	T cell MFI (human CD33 [2])	DC MFI (human CD33 [3])	Kd [4] [nM]	Monocyte MFI (human CD33 [5])	Macrophage MFI (human CD33 [6])	Kd [7] [nM]	Percent CD33 Surface Expression, DC % CD33 (human CD33 [8]) [%]	Percent CD33 Surface Expression, Macrophage % CD33 (human CD33 [8]) [%]	Percent CD33 Surface Expression, Monocyte % CD33 (human CD33 [8]) [%]	Percent RBC Binding to CD33 [9] [%]	Percent RBC Binding to CD33 [10] [%]
C-57 (antibody, V domains shown, human IgG1) VH: EVQLVESGGGLVQPGGSLRLSCAASGFTFSSYSMNWVRQAPGKGLEWVSYISSSSSTIYYADSVKGRFTISRDNAKNSLYLQMNSLRAEDTAVYYCARGGEGRPYLDIWGQGTMVTVSS VL: not shown	no binding (tested: 100 nM)	234	1490	1.8	162	867	7.67	20.7	41.8	37.1	10.6	15.8
C-61 (antibody, V domains shown, human IgG1) VH: QVQLVQSGAEVKKPGASVKVSCKASGYTFTSYYMHWVRQAPGQGLEWMGVINPSGGSTSYAQKFQGRVTMTRDTSTSTVYMELSSLRSEDTAVYYCARESQYYDVHGMDVWGQGTTVTVSS VL: EIVLTQSPGTLSLSPGERATLSCRASQSVSSSYLAWYQQKPGQAPRLLIYGASSRATGIPDRFSGSGSGTDFTLTISRLEPEDFAVYYCQQYYGLPLTFGGGTKVEIK	no binding (tested: 100 nM)	242	1310	2.06	122	797	13.4	22.8	50.8	38.3	9.73	13.3
C-68 (antibody, V domains shown, human IgG1) VH: QVQLQESGPGLVKPSQTLSLTCTVSGGSISSGGYYWSWIRQHPGKGLEWIGNIYYSGSTYYNPSLKSRVTISVDTSKNQFSLKLSSVTAADTAVYYCARDLPNSGSPGSDYFDYWGQGTLVTVSS VL: EIVLTQSPGTLSLSPGERATLSCRASQSVSSSYLAWYQQKPGQAPRLLIYGASSRATGIPDRFSGSGSGTDFTLTISRLEPEDFAVYYCQQYDNYPPTFGGGTKVEIK	no binding (tested: 100 nM)	561	526	4.61	115	752	30.9	59.1		71.9	10.1	31.6
C-69 (antibody, V domains shown, human IgG1) VH: EVQLVESGGGLVQPGGSLRLSCAASGFTFSSYWMSWVRQAPGKGLEWVANIKSDGSEKYYVDSVKGRFTISRDNAKNSLYLQMNSLRAEDTAVYYCARAETYQLSSAFDIWGQGTMVTVSS VL: not shown	no binding (tested: 100 nM)	318	923	2.94	80	628	22.1	21.7	41.8	29.3	8.95	11.3
C-6 (antibody, V domains shown, human IgG1) VH: not shown VL: DIQMTQSPSSVSASVGDRVTITCRASQGIDSWLAWYQQKPGKAPKLLIYAASSLQSGVPSRFSGSGSGTDFTLTISSLQPEDFATYYCQQASAHPPWTFGGGTKVEIK	no binding (tested: 100 nM)	46	1040	2.83	131	871	8.94	83	98.6	91	98.1	102
C-24 (antibody, V domains shown, human IgG1) VH: QVQLVQSGAEVKKPGASVKVSCKASGYTFTSYYMHWVRQAPGQGLEWMGVINPSGGSTSYAQKFQGRVTMTRDTSTSTVYMELSSLRSEDTAVYYCARESQYYDVHGMDVWGQGTTVTVSS VL: DIQMTQSPSSLSASVGDRVTITCRASQSISSYLNWYQQKPGKAPKLLIYAASSLQSGVPSRFSGSGSGTDFTLTISSLQPEDFATYYCQQSVTPPLTFGGGTKVEIK	no binding (tested: 100 nM)	193	1230	1.54	165	752	6.95	28.8	42.7	43.1	8.98	13

The remaining lines, values ahead:

binding result [1]	T cell MFI (human CD33 [2])	DC MFI (human CD33 [3])	Kd [4] [nM]	Monocyte MFI (human CD33 [5])	Macrophage MFI (human CD33 [6])	Kd [7] [nM]	Percent CD33 Surface Expression, DC % CD33 (human CD33 [8]) [%]	Percent CD33 Surface Expression, Macrophage % CD33 (human CD33 [8]) [%]	Percent CD33 Surface Expression, Monocyte % CD33 (human CD33 [8]) [%]	Percent RBC Binding to CD33 [9] [%]	Percent RBC Binding to CD33 [10] [%]	Binder
no binding (tested: 100 nM)	191	1130	1.6	140	598	9.16	24.7	41.5	37.5	10.7	18.2	C-59 (antibody, V domains shown, human IgG1) VH: QVQLVQSGAEVKKPGASVKVSCKASGYTFTSYYMHWVRQAPGQGLEWMGVINPSGGSTSYAQKFQGRVTMTRDTSTSTVYMELSSLRSEDTAVYYCAREGANYDSSGLDAWGQGTLVTVSS VL: not shown
no binding (tested: 100 nM)	230	1560	1.1	136	846	4.98	19.7	40	41.6	10.5	15.7	C-56 (antibody, V domains shown, human IgG1) VH: EVQLVESGGGLVQPGGSLRLSCAASGFTFSSYWMSWVRQAPGKGLEWVANIKQDGSEKYYVDSVKGRFTISRDNAKNSLYLQMNSLRAEDTAVYYCARDYGSVAGTPFDYWGQGTLVTVSS VL: DIQMTQSPSSLSASVGDRVTITCRASQSISSYLNWYQQKPGKAPKLLIYAASSLQSGVPSRFSGSGSGTDFTLTISSLQPEDFATYYCQQVLHTPLTFGGGTKVEIK
no binding (tested: 100 nM)	216	1330	1.62	161	852	7.67	26.9	44.5	31.2	9.33	11.5	C-65 (antibody, V domains shown, human IgG1) VH: QVQLVQSGAEVKKPGASVKVSCKASGYTFTSYYMHWVRQAPGQGLEWMGVINPSGGSTSYAQKFQGRVTMTRDTSTSTVYMELSSLRSEDTAVYYCARESQYYDVHGMDVWGQGTTVTVSS VL: DIQMTQSPSSLSASVGDRVTITCRASQSISSYLNWYQQKPGKAPKLLIYAASSLQSGVPSRFSGSGSGTDFTLTISSLQPEDFATYYCQQQYTLPPTFGGGTKVEIK
no binding (tested: 100 nM)	414	1300	1.67	113	602	10.9	37.8	46.3	39.1	12.6	15.9	C-27 (antibody, V domains shown, human IgG1) VH: QVQLVQSGAEVKKPGASVKVSCKASGYTFTSYYMHWVRQAPGQGLEWMGVINPSGGSTSYAQKFQGRVTMTRDTSTSTVYMELSSLRSEDTAVYYCARESQYYDVHGMDVWGQGTTVTVSS VL: DIQMTQSPSSLSASVGDRVTITCRASQSISSYLNWYQQKPGKAPKLLIYAASSLQSGVPSRFSGSGSGTDFTLTISSLQPEDFATYYCQQHYDIPLTFGGGTKVEIK
no binding (tested: 100 nM)	221	1040	1.66	151	775	9.33	26.8	45.4	41.7	12.9	10.7	C-60 (antibody, V domains shown, human IgG1) VH: QVQLVQSGAEVKKPGASVKVSCKASGYTFTSYYMHWVRQAPGQGLEWMGVINPSGGSTSYAQKFQGRVTMTRDTSTSTVYMELSSLRSEDTAVYYCARESQYYDVHGMDVWGQGTTVTVSS VL: DIQLTQSPSSLSASVGDRVTITCRASQSISSYLNWYQQKPGKAPKLLIYAASSLQSGVPSRFSGSGSGTDFTLTISSLQPEDFATYYCQQSVHVPITFGGGTKVEIK
